Test results as given in patent US20260226158A1 (DE NOVO BIOTHERAPEUTICS, published 2026).
Like-named read-outs stand apart in the source and are kept apart here. Each block holds one binder with its values, some of them ahead of it.

Experiments:
[1] = target: T1, 6506GJ130-1A: Human NKP46 Recombinant Protein (His) (human, UniProt O76036 22-258, limits assumed); experiment: ELISA on coated human NKp46 protein (title 'Human NKp46'), HRP anti-human IgG, OD 450 nm [label printed on D00006]]
T1 construct: also called human NKp46 protein; not shown: His tag

[2] = target: monkey NKp46 protein (monkey); experiment: ELISA on coated monkey NKp46 protein (title 'Cyno NKp46'), HRP anti-human IgG, OD 450 nm
[3] = target: T1, 6506GJ130-1A: Human NKP46 Recombinant …; experiment: ELISA on coated human NKp46 protein, HRP anti-human IgG, OD 450 nm [label printed at foot of D00002]]
Description: (§1) Human NKp46 protein and monkey NKp46 protein were each added at a concentration of 0.5 μg/mL to a 96-well plate and reacted for 1 hour at 37° C., followed by three washes with an appropriate volume of washing solution (0.05% Tween20, PBS), and then treated with 150 μL of blocking solution (1% BSA, PBS) for 1 hour at 37° C. After washing three times with an appropriate volume of washing solution (0.05% Tween20, PBS), the wells were treated with 3 serial dilutions of 1 μg/mL of anti-human NKp46 antibody at the maximum concentration and reacted for 1 hour at 37° C. […] The degree of binding between antigen and antibody was detected with 3′,5,5′-tetramethylbenzidine solution. Finally, the reaction was stopped by adding 1M HCl, and the absorbance was measured at 450 nm using an ELISA reader (Thermo Fisher Scientific). Four antibodies (1-2, 1-4-2, 1-8, and 1-10) that specifically bind to human NKp46 and monkey NKp46 were selected by the above two binding tests.

[4] = target: monkey NKp46 protein (monkey); experiment: ELISA on coated monkey NKp46 protein (title 'Cyno NKp46'), HRP anti-human IgG, OD 450 nm; remark: listed apart in the source
Description: as §1

monkey NKp46 protein (monkey), sequence (Q95JB9 22-257): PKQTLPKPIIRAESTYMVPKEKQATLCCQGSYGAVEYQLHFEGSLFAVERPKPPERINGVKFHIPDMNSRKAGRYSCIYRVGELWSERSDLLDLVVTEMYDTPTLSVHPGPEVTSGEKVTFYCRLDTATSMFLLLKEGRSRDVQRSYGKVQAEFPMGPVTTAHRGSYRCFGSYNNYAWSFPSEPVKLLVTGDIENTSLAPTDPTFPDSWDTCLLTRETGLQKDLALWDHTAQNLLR
T1 sequence (O76036 22-258 limits assumed): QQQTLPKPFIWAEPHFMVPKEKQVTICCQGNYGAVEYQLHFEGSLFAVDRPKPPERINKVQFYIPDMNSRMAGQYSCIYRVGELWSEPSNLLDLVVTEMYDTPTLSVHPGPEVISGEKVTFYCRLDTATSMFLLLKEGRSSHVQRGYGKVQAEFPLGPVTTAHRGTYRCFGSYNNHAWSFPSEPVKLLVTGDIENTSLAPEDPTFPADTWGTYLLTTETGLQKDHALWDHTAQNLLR

B1: 32C9F4 (antibody, human IgG4 S228P, kappa, V domains shown)
VH: QVQLQQPGAELVKPGASVKLSCKASGYTFTSYWMHWVKQRPGQGLEWIGMIHPNSGVTKYNEKFKSKATLTVDKSSSTAYMQLSSLTSEDSAVYFCAGDGRFAYWGQGTLVTVSA
VL: DIQMTQSPSSLSASLGERVSLTCRASQDIGSSLNWLQQEPDGTIKRLIYATSSLDSGVPKRFSGSRSGSDYSLTISSLESEDFVDYYCLQYASSPWTFGGGTKLEIKR
notes: Hybridoma screening; also called 2-2
EC50 (read off the curve) [1]: ~0.05 nM
EC50 (read off the curve) [2]: ~0.03 nM

B2: 28E10B12 (antibody, human IgG4 S228P, kappa, V domains shown)
VH: QVQLQQPGAELVKPGASVKLSCKASGYTFTSYWMNWVKQRPGQGLEWIGMIHPNSDITNYNEKFKSQATLTVDKSSSTAYMQLSSLTSEDSAVYYCARHGRFDYWGQGTTLTVSS
VL: DIQMTQSPSSLSASLGERVTLTCRASQDIGSSLNWLQQEPDGTIKRLIYATSSLDSGVPKRFSGSRSGSDYSLTISSLESEDFVDYYCLQYASSPFTFGSGTKLEIKR
notes: Hybridoma screening; also called 2-3
EC50 (read off the curve) [1]: ~0.03 nM
EC50 (read off the curve) [2]: ~0.03 nM

Results, then the binder that gave them:

EC50 (read off the curve) [1]: ~0.05 nM
EC50 (read off the curve) [2]: ~0.06 nM
B3: 45A10D5 (antibody, human IgG4 S228P, kappa, V domains shown)
VH: QVQLQQPGAELVKPGASVKLSCKASGYTFTSYWMHWVKQRPGQGLEWIGMIHPNSGSTNYNEKFKSKATLTVDKSSSTAYMQLSSLTSEDSAVYYCVYDGRFAYWGQGTLVTVSA
VL: DIQMTQSPSSLSASLGERVSLTCRASQDIGSSLNWLQQEPDGTIKRLIYATSSLDSGVPKRFSGSRSGSDYSLTISSLESEDFVDYYCLQYASSPFTFGSGTKLEIKR
notes: Hybridoma screening; also called 2-1

EC50 (read off the curve) [3]: ~0.2 nM
B4: u6506gj130-1-2 (antibody, human IgG4 S228P, kappa, V domains shown)
VH: EVQLQQSGPELVKPGASVKISCQASGYTFTDYYLNWVKQSHGKSLEWIGDIDPHNGGTSYNQKFKDKATLTVDKSSSTAYMELRSLTSEDSAVYYCARFPIYYSGSSPMDYWGQGTSVTVSS
VL: DIQMTQSPASLSASVGETVTITCRTNENIFSYLAWYQQKQGKSPQLLVYNAKTLAEGVPSRFSGSASGTQFSLKINTLQPEDFGSYYCQHHYGTPYTFGGGTKLEIIR
notes: Beacon screening

EC50 (read off the curve) [3]: ~0.2 nM
EC50 (read off the curve) [4]: ~0.2 nM
B5: u6506gj130-1-10 (antibody, human IgG4 S228P, kappa, V domains shown)
VH: QVQLQQPGAELVKPGASVKLSCKASGYIFTSYWMHWVKQRPGQGLEWIGMIHPNSGSTNYNEKFKSKATLTVDKSSSTAYMQLSSLTSEDSAVYYCAREGNWARGYFEYWGQGTTLTVSS
VL: DIKMTQSPSSMYASLGERVTITCKASQDINSYLSWFQQKPGKSPKTLIYRANRLVDGVPSRFSGSGSGQDYSLTISSLEYEDVGMYYCLQYDEFPYTFGGGTKLEIKR
notes: Beacon screening
